Reference: patent publication US20120245092A1 (ECOLE NORMALE SUPERIEURE DE LYON, published 2012)
Changes are numbered by the printed parent chain.

Assays:
[1] = target: T1, CNA construct CNA11, two-hybrid prey (Mus musculus (Mouse), UniProt P48453 384-495); test: yeast two-hybrid assay (FIG. 14)
T1 construct: not shown: HA-pJG4-5 prey fusion moiety

[2] = target: T2, CNA beta C ter-CaM (amino acids 378 to 423), two-hybrid prey (human, UniProt P16298 378-423); test: yeast two-hybrid mating assay
T2 construct: also called CnAβCter CaM
Method: (§1) The 5′ end of RH6 (upper case) matches part of the HA epitope tag and the 5′ ends of RH4, RH3 and RH7 (upper case) match the 5′ extremity of the ADH terminator. The PCR reactions was performed using pCMV-SPORT6-CnAβ as a template. […] MB210a was co-transformed with the PCR products and EcoRI/XhoI-cut pJG4-5. The prey plasmids were retrieved from the transformants (21) and the homologous recombination products were checked by sequencing. MB210a was also transformed with positive and negative controls of interaction. […] The yeast two-hybrid mating assays were performed as described (21).

[3] = target: T3, CNA beta C ter-delta 2 (amino acids 378 to 456), two-hybrid prey (human, UniProt P16298 378-456); test: yeast two-hybrid mating assay
T3 construct: also called CnAβCter Δ2
Method: as §1

[4] = target: T4, CNA beta C ter-delta 1 (amino acids 378 to 500), two-hybrid prey (human, UniProt P16298 378-500); test: yeast two-hybrid mating assay
T4 construct: also called CnAβCter Δ1
Method: as §1

[5] = target: T5, CNA construct CNA4, two-hybrid prey (Homo sapiens (Human), UniProt P16298 414-524); test: yeast two-hybrid assay, higher sensitivity (FIG. 14)
T5 construct: not shown: HA-pJG4-5 prey fusion moiety

[6] = target: T6, CNA construct CNA3, two-hybrid prey (Homo sapiens (Human), UniProt P16298 384-524); test: as above
T6 construct: not shown: HA-pJG4-5 prey fusion moiety

[7] = target: T7, CNA construct CNA7, two-hybrid prey (Homo sapiens (Human), UniProt P16298 1-413); test: as above
T7 construct: not shown: HA-pJG4-5 prey fusion moiety

[8] = target: T8, CNA construct CNA10, two-hybrid prey; test: as above
T8 construct: not shown: HA-pJG4-5 prey fusion moiety

[9] = target: T9, CNA construct CNA9, two-hybrid prey (Rattus norvegicus (Rat), UniProt P20651 342-419); test: as above
T9 construct: not shown: HA-pJG4-5 prey fusion moiety

[10] = target: T1, CNA construct CNA11, two-hybrid prey; test: as above
[11] = target: T10, CNA construct CNA8, two-hybrid prey (Homo sapiens (Human), UniProt P16298 1-388); test: as above
T10 construct: not shown: HA-pJG4-5 prey fusion moiety

[12] = target: T11, NS5A-TP2 (two-hybrid prey) (human, UniProt Q7Z4H3 1-204); test: as above
T11 sequence: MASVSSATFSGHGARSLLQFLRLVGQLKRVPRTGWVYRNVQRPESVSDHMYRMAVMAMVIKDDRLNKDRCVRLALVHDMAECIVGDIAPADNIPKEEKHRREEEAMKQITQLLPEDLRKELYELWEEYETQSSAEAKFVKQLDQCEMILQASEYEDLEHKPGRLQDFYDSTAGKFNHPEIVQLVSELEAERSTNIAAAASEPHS

[13] = target: T12, CNAγ C-terminal fragment (calcineurin A gamma clone selected from the testes cDNA library, two-hybrid prey) (human, UniProt P48454 365-512); test: yeast two-hybrid mating assay
T12 construct: Truncated protein; also called CNA gamma C-terminal fragment
T12 sequence (P48454 365-512): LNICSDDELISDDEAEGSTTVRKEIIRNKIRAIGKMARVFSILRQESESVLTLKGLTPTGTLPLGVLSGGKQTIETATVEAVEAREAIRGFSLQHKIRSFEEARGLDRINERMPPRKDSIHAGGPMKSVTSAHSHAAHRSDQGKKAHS
Method: as §1

[14] = target: T13, CNAβ C-terminal fragment (calcineurin A beta clone selected from the testes cDNA library, two-hybrid prey) (human, UniProt P16298 378-524); test: yeast two-hybrid mating assay
T13 construct: Truncated protein; The truncations made from it start at amino acid 378; also called CNA beta C-terminal fragment
Method: as §1

[15] = target: T11, NS5A-TP2 (two-hybrid prey); test: yeast two-hybrid assay (FIG. 9)
Text: (§2) CNA beta and gamma C-Terminal fragments and NS5A-TP2 were cloned in three different vectors (pSH18-34, pJK103 and pRB18-40). These three plasmids differ from each other in the level of sensitivity of their promoter, pSH18-34 having the highest sensitivity and pRB18-40 having the lowest.

[16] = target: T12, CNAγ C-terminal fragment (calcineurin A …); test: yeast two-hybrid assay (FIG. 9)
Text: as §2

[17] = target: T13, CNAβ C-terminal fragment (calcineurin A …); test: yeast two-hybrid assay (FIG. 9)
Text: as §2

B1: LexA-R5G42 fusion protein (peptide aptamer R5G42 as two-hybrid bait) (designed binder, not shown: large carriers)
chain: MVKQIESKTAFQEALDAAGDKLVVVDFSATWCGPSAVTFAVCALGPCKMIKPFFHSLSEKYSNVIFLEVDVDDCQDVASECEVKCMPTFQFFKKGQKVGEFSGANKEKLEATINELV
notes: also called LexA-R5G42 bait protein
- binding result [1]: binds
- binding result [2]: no binding
- binding result [3]: no binding
- binding result [4]: binds

B2: LexA-R5G52 fusion protein (peptide aptamer R5G52 as two-hybrid bait) (designed binder)
chain: B1 chain with S35I, A36Q, V37S, T38P, F39P, A40E, V41S, C42P, A43T, L44G
notes: also called LexA-R5G52 bait protein; not shown: LexA (E. coli), fusion partner from pGILDA
- binding result [5]: no binding
- binding result [6]: no binding
- binding result [7]: no binding
- binding result [8]: no binding
- binding result [9]: no binding
- binding result [10]: no binding
- binding result [11]: no binding
- binding result [12]: no binding

B3: LexA-R7G44 fusion protein (peptide aptamer R7G44 as two-hybrid bait) (designed binder)
chain: B1 chain with S35H, A36Q, V37S, F39I, A40G, C42A, A43E, L44F
notes: Control aptamer; not shown: LexA (E. coli), fusion partner from pGILDA
- binding result [13]: no binding
- binding result [14]: no binding

B4: R5G42 mutant C2 (LexA fusion, two-hybrid bait) (designed binder)
chain: B1 chain with P52L
notes: One amino acid change against R5G42; also called R5G42-C2; not shown: LexA fusion partner (pGILDA bait)
- binding result [15]: no binding
- binding result [1]: binds

B5: R5G42 mutant C7 (LexA fusion, two-hybrid bait) (designed binder)
chain: B1 chain with L22P
notes: One amino acid change against R5G42; also called R5G42-C7; not shown: LexA fusion partner (pGILDA bait)
- binding result [15]: no binding
- binding result [1]: binds

B6: R5G42 mutant C8 (LexA fusion, two-hybrid bait) (designed binder)
chain: B1 chain with F39I
notes: One amino acid change against R5G42; also called R5G42-C8; not shown: LexA fusion partner (pGILDA bait)
- binding result [15]: no binding
- binding result [1]: binds

B7: R5G42 mutant N9 (LexA fusion, two-hybrid bait) (designed binder)
chain: B1 chain with T30A
notes: One amino acid change against R5G42; also called R5G42-N9; not shown: LexA fusion partner (pGILDA bait)
- binding result [16]: no binding
- binding result [17]: no binding
- binding result [1]: binds
